Test results as given in the supplement of paper PMC10065799, “High-throughput profiling of sequence recognition by tyrosine kinases and SH2 domains using bacterial peptide display” (eLife, 2023).

Target: Grb2 SH2 (UniProt P62993)
Assay: SH2 binding enrichment of the phosphorylated peptide, bacterial display (enrichment ratio); higher = better substrate or ligand; peptides without Tyr show the background
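Note: peptide library displayed on the E. coli surface as eCPX fusions, selected cells deep-sequenced, score is each peptide's frequency after selection divided by its frequency in the input.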

Chain of Grb2 SH2 (P62993 whole entry, looked up): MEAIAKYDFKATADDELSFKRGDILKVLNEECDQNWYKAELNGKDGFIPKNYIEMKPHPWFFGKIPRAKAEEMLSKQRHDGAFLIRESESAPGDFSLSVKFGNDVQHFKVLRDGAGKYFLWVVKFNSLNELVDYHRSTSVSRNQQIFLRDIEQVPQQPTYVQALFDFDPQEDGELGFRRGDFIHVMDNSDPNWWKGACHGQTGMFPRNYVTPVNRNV

Point of comparison: AVDVTYDGHPV [FLNB_Y1020], SH2 binding enrichment 0.803. Against it:
- TYACSYTPVKA [FLNB_Y708] — higher, 0.85
- FASAEYQEALS [GALNS_Y461] — lower, 0.734
- DGQFVYKLTDF [TBK1_Y153_S151F] — higher, 0.859
- MAHDRYAAICS [OR8H2_Y123] — higher, 0.9
- IYRASYYRKGG [ALK_Y1282] — higher, 0.825
- GGYTRYCDGKK [PROS1_Y266_C265R] — higher, 1.31
- PLKALYLQQRL [ATM_Y2969_P2974L] — higher, 1.2
- KSEMSCIDGEK [SORBS1_Y485_Y485C] — higher, 1.03
- EEQKKYSNAMK [SCN5A_Y1494_Y1495S] — higher, 0.82
- NPPGMHPVTGP [LPP_Y346_Y346H] — higher, 0.861
- DKWFLYKMRDI [CPS1_Y879] — higher, 0.838
- GESSGYLRLAF [MEP1A_Y481_R476G] — higher, 0.919
- SFIGQYSGKKE [L1CAM_Y1229] — lower, 0.721
- DYCDLYGGEKF [PTPN11_Y66_Y63C] — higher, 0.839
- WFPFTYVEEDE [VAV3_Y842_S840Y_YF] — higher, 1.48
- KLNNEHLELNF [MME_Y497_Y497H_YF] — lower, 0.783
- SSDPDYLAAVD [GLB1_Y154] — higher, 1.02
- RSYSPYDYQPC [TNS1_Y796] — higher, 1.2
- PQGVSYIFTID [DCX_Y103_R102S_YF] — higher, 0.902
- SVMAEYGLYRA [VSX2_Y219_G223R] — lower, 0.734
- SASWTYVRWFD [PTDSS1_Y274_P269S] — higher, 0.997
- GDEEDYYEIPG [EGFR_opt_no-pY_2015] — higher, 0.87
- AEDEDYESVGA [SYKtide_2014] — higher, 0.852
- TLSGIYQYIIA [FOXL2_Y81] — higher, 1.22
- PGVNFYFRVSA — lower, 0.759
- AVLVQYFMEHH [PTPN11_Y80_E76V_YF] — higher, 1.37
- EVQKNYEHLFK [PAM16_Y77] — higher, 0.897
- GVLKEYGGKVL [CPS1_Y529_V531G] — higher, 0.963
- ITRDIYETDYY [INSR_Y1185_M1180I] — higher, 0.854
- EAEALYQTTFQ [KRT73_Y325_K328T] — higher, 0.804
- LCRFGYANTSE [SI_Y1233_YF] — higher, 1.47
- NESVDSRATFP [MET_Y1003_Y1003S] — higher, 0.925

Target: c-Src SH2
Assay: as above

Point of comparison: AEDEDYESVGA [SYKtide_2014], SH2 binding enrichment 0.589. Against it:
- TYACSYTPVKA [FLNB_Y708] — higher, 1.54
- FASAEYQEALS [GALNS_Y461] — lower, 0.569
- DGQFVYKLTDF [TBK1_Y153_S151F] — lower, 0.481
- MAHDRYAAICS [OR8H2_Y123] — higher, 5.4
- IYRASYYRKGG [ALK_Y1282] — lower, 0.528
- GGYTRYCDGKK [PROS1_Y266_C265R] — higher, 1.21
- PLKALYLQQRL [ATM_Y2969_P2974L] — higher, 0.8
- KSEMSCIDGEK [SORBS1_Y485_Y485C] — lower, 0.585
- EEQKKYSNAMK [SCN5A_Y1494_Y1495S] — lower, 0.497
- NPPGMHPVTGP [LPP_Y346_Y346H] — lower, 0.45
- DKWFLYKMRDI [CPS1_Y879] — lower, 0.373
- GESSGYLRLAF [MEP1A_Y481_R476G] — higher, 0.602
- SFIGQYSGKKE [L1CAM_Y1229] — lower, 0.525
- DYCDLYGGEKF [PTPN11_Y66_Y63C] — higher, 0.724
- WFPFTYVEEDE [VAV3_Y842_S840Y_YF] — higher, 1.23
- KLNNEHLELNF [MME_Y497_Y497H_YF] — lower, 0.419
- SSDPDYLAAVD [GLB1_Y154] — lower, 0.482
- RSYSPYDYQPC [TNS1_Y796] — higher, 1.26
- PQGVSYIFTID [DCX_Y103_R102S_YF] — lower, 0.553
- SVMAEYGLYRA [VSX2_Y219_G223R] — lower, 0.447
- SASWTYVRWFD [PTDSS1_Y274_P269S] — higher, 0.638
- GDEEDYYEIPG [EGFR_opt_no-pY_2015] — higher, 1.84
- TLSGIYQYIIA [FOXL2_Y81] — higher, 1.49
- PGVNFYFRVSA — lower, 0.424
- AVLVQYFMEHH [PTPN11_Y80_E76V_YF] — higher, 1.19
- EVQKNYEHLFK [PAM16_Y77] — higher, 0.634
- GVLKEYGGKVL [CPS1_Y529_V531G] — lower, 0.29
- AVDVTYDGHPV [FLNB_Y1020] — lower, 0.444
- ITRDIYETDYY [INSR_Y1185_M1180I] — higher, 1.1
- EAEALYQTTFQ [KRT73_Y325_K328T] — lower, 0.483
- LCRFGYANTSE [SI_Y1233_YF] — higher, 0.877
- NESVDSRATFP [MET_Y1003_Y1003S] — lower, 0.48
